Results taken from US20160152676A1.

Target: gp41 of HIV-1 IIIB virus (HIV-1 IIIB) (UniProt P04578)
Experiment: cell-based or functional assay

With “C34-ELMO (from UniProt Q92556 553-675) (designed binder)” as the substance, how does the inhibition of HIV-1 infection in cellulo (GFP+ CEM-GFP cells, flow cytometry); concentration at which some inhibition is seen read?
The inhibition of HIV-1 infection in cellulo (GFP+ CEM-GFP cells, flow cytometry); concentration at which some inhibition is seen was 250 nM.
